In test [1] the target is T1, Complex I with gH D446N, on virions of HB1 - mutant virus 4 (HCMV, UniProt P12824 24-743; P16832 31-278; P16837 28-171; F5HCP3 26-214; F5HET4 19-129).
T1 chain 1: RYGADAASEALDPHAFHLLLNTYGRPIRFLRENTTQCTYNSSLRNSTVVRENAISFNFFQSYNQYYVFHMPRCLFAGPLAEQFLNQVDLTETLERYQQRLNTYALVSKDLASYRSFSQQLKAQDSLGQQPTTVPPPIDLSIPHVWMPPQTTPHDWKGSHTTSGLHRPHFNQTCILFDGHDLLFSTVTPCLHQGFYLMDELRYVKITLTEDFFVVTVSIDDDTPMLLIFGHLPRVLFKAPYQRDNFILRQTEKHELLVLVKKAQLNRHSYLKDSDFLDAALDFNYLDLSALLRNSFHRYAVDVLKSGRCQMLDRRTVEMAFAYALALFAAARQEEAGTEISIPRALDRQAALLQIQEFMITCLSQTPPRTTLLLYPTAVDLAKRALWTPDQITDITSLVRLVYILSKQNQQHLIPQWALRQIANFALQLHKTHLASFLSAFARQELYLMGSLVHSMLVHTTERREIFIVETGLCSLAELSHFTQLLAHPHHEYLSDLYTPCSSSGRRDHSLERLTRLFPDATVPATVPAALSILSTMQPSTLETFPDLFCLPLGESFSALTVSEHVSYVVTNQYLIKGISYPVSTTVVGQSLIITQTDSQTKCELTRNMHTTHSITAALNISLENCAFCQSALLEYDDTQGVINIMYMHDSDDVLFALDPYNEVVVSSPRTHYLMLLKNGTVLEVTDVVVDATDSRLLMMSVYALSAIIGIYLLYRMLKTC
T1 chain 2: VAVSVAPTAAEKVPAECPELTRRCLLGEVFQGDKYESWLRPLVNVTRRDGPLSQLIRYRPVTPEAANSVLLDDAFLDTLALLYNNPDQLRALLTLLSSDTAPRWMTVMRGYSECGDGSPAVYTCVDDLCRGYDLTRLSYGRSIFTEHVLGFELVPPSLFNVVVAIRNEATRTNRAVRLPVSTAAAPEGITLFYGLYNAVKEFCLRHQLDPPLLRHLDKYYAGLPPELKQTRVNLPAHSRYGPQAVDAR
T1 chain 3: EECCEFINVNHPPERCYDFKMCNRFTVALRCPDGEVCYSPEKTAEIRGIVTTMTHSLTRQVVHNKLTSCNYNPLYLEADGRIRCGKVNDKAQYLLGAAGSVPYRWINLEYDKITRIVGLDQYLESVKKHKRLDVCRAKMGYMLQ
T1 chain 4: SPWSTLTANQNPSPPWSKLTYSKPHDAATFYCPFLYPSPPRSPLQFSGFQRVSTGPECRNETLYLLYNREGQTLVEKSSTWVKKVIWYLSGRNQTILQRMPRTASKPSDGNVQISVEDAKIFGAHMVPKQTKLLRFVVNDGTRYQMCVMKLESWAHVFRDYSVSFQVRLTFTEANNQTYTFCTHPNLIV
T1 chain 5: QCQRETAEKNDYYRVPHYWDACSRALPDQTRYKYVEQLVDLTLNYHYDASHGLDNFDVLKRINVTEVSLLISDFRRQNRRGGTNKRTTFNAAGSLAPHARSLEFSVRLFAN
The experiment in a line: cell-based or functional assay.

The target in test [2] is T2, gH/gL, full-length, on the surface of transfected HEK-293T cells (HCMV, UniProt P12824 24-743; P16832 31-278).
T2 construct: also called cells expressing gH/gL alone; cell-surface expressed gH/gL
The experiment in a line: FACS on transfected HEK-293T cells.

The values below come from patent US20150376265A1 (Genentech, published 2015).

B1: hu8G8 (lambda4 8G8 graft and hu8G8.VH1) (antibody, V domains shown)
VH: EVQLVQSGAEVKKPGASVKVSCKASGYTFTNYGMNWVRQAPGQGLEWIGWINTYTGEPTYADDFKGRVTITRDTSTSTAYLELSSLRSEDTAVYYCARSWYYVSNYWYFDVWGQGTLVTVSS
VL: SVLTQSPSASASLGASVKLTCTLSSQHSTYTIEWYQQQPGKGPRYLMKLKKDGSHSTGDGIPDRFSGSSSGADRYLTISNLQSEDEADYYCGVGDTIKEQFVYVFGGGTKLTVLG
notes: also called hu8G8 with VH1; Humanized 8G8 with VH1
On to B1, for which the “hu8G8 EC50, neutralisation of HB1 - mutant virus 4, Data Set 2” value in test [1] came out at 0.1 ng/mL. In addition, in test [2], the binding result is recorded as “no binding (tested: saturating primary antibody)”.
